# Laboratory results as given in the nanobody polyreactivity screen of Harvey et al. (2022).
# Test: yeast display, Sf9 membrane polyspecificity reagent, FACS + sequencing; frameworks hold sequencing errors
# Outline: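 Using colony PCR, genes from sorted yeast display clones were amplified, then sequenced on MiSeq at 2 × 250 and filtered by CDR length. The clones had been stained with 10% biotinylated, detergent-solubilized Sf9 membrane reagent for 1 hour at 4 °C and sorted by FACS into low and high (top ~1%) gates on anti-HA and streptavidin fluorescence. Polyreactivity labels come from the gate of origin.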
row,Sequence,polyreactivity (PSR sort gate)
1,QVQLVESGGGLVQAGGSLRLSCAASGGIFFINAMGWYRQAPGKERELIAAISISDGSTYYADSVKGRFTISRDNAKNTVYLQMNSLKTEDTAVYYCAADYDVLRLGYARIPLYDYWGQGTQVTVSS,low polyreactivity
2,QVQLVESGGGLVQAGGSLRLSCAASGLTFYKNAMGWYRQAPGKVRELVAVISSSGGSTYYADSVKGRFTISRDKAKNTVYLQMNSLKPEDTAVYYCARDLYTEYRWGRLTYDYWGQGTQVTVSS,low polyreactivity
3,QVQLVESGGGLVQAGGSLRLSCAASGSTLGVYVMGWYRPAPGKERELVAAISRNGGSTYYADSVKGRFTISRDNAMNTVYLQMNSLKPEDTAVYYCAARTVGRKAGFDYWGQGTQVTVSS,high polyreactivity
4,QVQLVESGGGLVQAGGSLRLSCAASGRTFTRYTMGWYRQAPGKERELVAAISYSGGSTYYADSVKGRFTISRDNAKNTVYLQMNSLKPEDTAVYYCAAASVRWPGYDYWGQGTQVTVSS,high polyreactivity
5,QVQLVESGGGLVQAGGSLRLSCAASGSTFAWYAMGWYRQAPGKGEFVAGISDSGGRTYYADSVKGRFTISRDNAKNTVYLQMNSLKPEDTAVYYCAAGDHYYRYAYRRGYWGQGTQVTVSS,low polyreactivity
6,QVQLVESGGALVQAGGSLRLICAASGGTFTNYAMGWYSQAPGKERELVAAITDSGATTYYADSVKGRFTNSRDNAKNTVYLQMNSLKPEDTAVYYCNAELDLYTDFDYWGQGTQVTVSS,low polyreactivity
7,QVQLVESVGGLVQAGGRLRLSCAASGSTFPRYTRGWYRQAPGKERELVAAISSRGGSTIYADSVKGRFTNSRDNAMNTVYLEMNSLKPEDSAVYYCAARRASRDGYWGQGTQVTVSS,high polyreactivity
8,KVQLVESGGGLVQAGGSLRLSCAASGRILVYNVMGWYRQAPGKEMEFVAAITSRDTSTYYADSVKGRFTISRDNAKNPVYLQMNSLKPEDTAVYYCAVRVGARVRYYSWGQGTQVTVSS,high polyreactivity
9,QVQLVESGGGLVQAGGSLRLSCAASGSIFTPNAMGWYRQAPGKERELVAAISWSGGGTYYADSVKGRFTISRDNAKNTVYLQMNSLKPEDTADYYCAVDFRYQDAYEYYWGQGTQVTVSS,low polyreactivity
10,QDQLVESGGGLVQAGGSLRLSCAASGSIFAGYVMGWYRQAPGKERELVASISSGTGTFYADSVKGRFTISRDNAKNTVYLQMNSLKPEDTAVYYCAAESYRTVQFIRSRWRYTYDYWGQGTQVTVSS,low polyreactivity
11,QVQLVESGGGLVQAGGSLRLSCAASGYIFGYNAMGWYRPAPGKERELVATITWRGGSTYYADSVKGRFTISRDNAKNTVYLQMNSLKPEDTAVYYCAAVRWVRYRTSAYEYWGQGTQVTVSS,high polyreactivity
12,QVQLVESGGGIVQAGGSLRLSCAATGRIFTGYTMGWYRQAPGKERELVAAISQSGGRTYYADSVKGRFTISRDNAKHTVYLQMNSLKPEDTAVYYCAAVWSRTGYDYCGQGTQVTVSS,high polyreactivity
13,QDQLVESVGGLVQAGGSLRLSCAASGFTFYNYAMGWYRQAPGKERELVAAISWNGGSTYYADSVKGRFTISRDNAKNTVYLQMNSLKPEDTAVYYCNADISQRTRGYYYVWWSRMDYWGQGTQVTVSS,low polyreactivity
14,QVQLGESGGGLVQAGGRLRLSCAASGFTFNTYAMGWYRQAPGKVRALVATITSDGSTTYADSVKGRFTISRDNAKNTVNLQMNSLKPEDTAVYYFNARVWVHRYYYYFTHIITYDYWGQGTQVTVSS,low polyreactivity
15,QVQLVESGGGLVQAGGSLRLSCAASGSIFQVYAMGWYRQAPGKEREFVAAISYSGGGTYYADSVKGRFTISRDTAKNTVYLQMNSLKPEDSAVYYCAATEQYGRDSWSSYRIFPPYDDWGQGTQVTVSS,low polyreactivity
16,QVQLVESGGGLVQAGGSLRLSCAASGSIFGTNAMGWYRQAPGKERELVAAIRGSGGRTYYADSVKGRFTISRDNAKNTVYLQMNSLKPEDTAVYYCAARWGPYYGGVRYGYWGQGTQVTVSS,high polyreactivity
17,QVQLVESGGGLVQAGGSLRLSCAASGSIFYYYAAMGWYRQAPGKERELVAAIDSSDGTTYYADSVKGRFTISRDNAKNTVYLQMNSLKPEDTAVYYCAAETVQEFEYWGQGTQVTVSS,high polyreactivity
18,QVQLVESGGGLVQAGGSLRLSCAASGRTFRNNAMGWYRQAPGKERELVAAISSRGGSTYYADSVKGRFTISRDNAKNTVYLQMNSLKPEDTAVYYCADDHSRYGDYWGQGTQVTVSS,high polyreactivity
19,QVQLVESGGGLVQAGGSLRLSCAASGSIFPFYAMGWYRQAPGKERELVAAITRSDGSTYYADSVKGRFTISRDNAKNTVYLQMNSLKPEDTAVYYCADYGYWGQGTQVTVSS,low polyreactivity
20,QVQLVESGGGLVQAGGSLRLSCAASGIIFLKYAMGWYRQAPGKERELVAGISVRGGRTYYADSVKGRFTISRDNAKNTVYLQMNSLKPEDTAVYYCAKERSRYYPYDYWGQGTQVTVSS,high polyreactivity
21,QVQLVESGGGLVQAGGSLRLSCAASGHIFLGNVMGWYRQAPGKERELVAAISKRGGRTYYADSVKGRFTISRDNAKNTVYLQMNSLKPEDTAVYYCAAVIDSREEYWGQGTQVTVSS,high polyreactivity
22,QVQLVESGGGLVQAGGSVRLSCAASGRIFGWYAMGCYRPAPGKERELVAAIPWSGDSTYYADSVKGRFTISRDNAKNTVYLQMNSLKPEDTAVYYCNKVRGYPRVAGYYSWGQGTQVTVSS,low polyreactivity

row,Sequence,polyreactivity (PSR sort gate)
1,QVQLVESGGGLVQAGGSLRLSCAASGRIFGSYAMGWYRQAPGKERELVAAITRSGGSTYYADSVKGRFTISRDNAKNTVYLQMNSLKPEDTAVYYCAARYGIRYAYFGRFDYWGQGTQVTVSS,high polyreactivity
2,QVQLVESGGGLVQAGGSLRLSCAASGITFFGYAMGWYRQAPGKERELVAGISRSTGRTYYADSVMGRFTISRDNAKYTVYLQMNSLKPEDTAVYYCDARATRSLSRYMDYWGQGTQVTVSS,high polyreactivity
3,QVQLVESGGGLVQAGGSLRLSCAASGITFWTYAMGWYRQAPGKERELVAAISKSGGSTYYADSVKGRFTISRDNAKYNVYLQLKSLKPEDTAVYYCAAKGLRYRDIDYDYWGQGTQVTVSW,low polyreactivity
4,QVQHVETRGGLVQAGGSLRLSCAASGFIFIRYAMGWDRQAPGKERELVAGITSSGGSTYYADSVKGRFTISRDNAKNSVYLQMNSLKPEDTEVYFCNADSWLYRFYGYDYWGQGTQVTVSS,low polyreactivity
5,QVQLVESGGGLVQAGGSLRLSCAASGFIFNRYAMGWYRQAPGKERELVADITGGSTYYADSVKGRFTISRDNAKNTVYLQMNSLKPEDTAVYYCAADVLRISTQLFRGPGFDSWGQGTQVTVSS,low polyreactivity
6,QVQLVESGGGLVQAGGSLRLSCAASGRTFRTNAMGWYRQAPGKEPELVAAISRGGGSTYYADSVKGRFTISRDNAKNTVYLQMNSLKPEDTAVYDCNALRNGIAFGAMDYWGQGTQVNVSS,high polyreactivity
7,QVQLVESGGGLVQAGGSLRLSSDASGNTFVYNAMGWYRQAPGKERKLVAGITKTGGRTYYADSVKGRFTISRDNAKNTVYLQMNSLKPDDTAVYYCAARPWNDGYYVGRFHMDYWGQGTQVTLSS,low polyreactivity
8,QVQLVESGGGLVQAGGSLRLSCAASGRTFSRYTMGWYRQAPGKEREFVAAIDRGGGTTYYADSVKGRFTISRDNAKNTVYLQMNSLKPEDTAVYYCAAERNYWSTQYYYWGQGTQVTVSS,high polyreactivity
9,QVQLVESGGGLVQAGGSLRLSCAASGFTFEYYAMGWSRQAPGKETELVATITWNGGSTYYADSVKGRFTISRDNAKNTVYLQMNSLKPVDTAVYYCAADEQAYYVRRFDYWGQCTQVTVSS,low polyreactivity
10,QVQLVESGGGLVQAGVSLRLSCAASGFIFRTYAMGWYRQAPGKEREVVAAITGRGGTTYYADSVKGRFTISRDNAKNTVYLQMNSLKPEDTAVYYCAARGRVSVNTQRYAAYNYLGQGTQVTVSS,high polyreactivity
11,QVQLVESGGGLVQAGGSLRLSCAASGFIFGYYVMGLYTQAPGKERELVAAITTSGGSTYYADSVKGRFTISRDNAKNTVYLQMNSLKPEDTAVYYCAADGSPSLLDYWGQVTQVTVSS,high polyreactivity
12,QVQLVESGGGLVQAGGSLRLSCAASGLTFAYYVMGWYRQAPGKERELVATITRGGDTYYADSVKGRFTISRDNAKITVYLQMYSLKPEDTAVYYCNAYLRSGSMDYWGQGTQVTVSS,high polyreactivity
13,QVQLVESGGCLVQAGGSLRLSCADSGIIYYYYAMGWYRQAPGKERELVAAISTSGGRTYYADSVKGRFTISRDNAKNTVYLQMNSLKPEDTAVYYCAADYLKGEEDYWGQGTQVSVSS,low polyreactivity
14,QVQLVESGGGLVQAGGSLRLSCAASGSIFGPYAMGGYRQAPGKERELVAAISSGGSTNYADSVKGRFTISRDNAKNTVYLQMNSLKPEDTAVYYCAADRKYFYLWLDQEHRYYWGQGTQVTVSS,low polyreactivity
15,QVQLVESGGGLVQAGGSLRLSCAASGSIFPGNAIGSYRQAPGKERELDARITVSGGTTYFADSVKGRFTISRDNAKNTVYLQMNSLKPEDTAVYYCAADGPSPFIQGYAKGDYWGQGTQVTVSW,low polyreactivity
16,QVQLVESGGGLVQAGGSLRLSCAASGITFKYYGMGWYRQAPGKERELVAAISWSGASTYYADSVKRRFTISRDNAKNTVYLQMNSLKPEDTAVYYCAAVRRRGQRGRLDYWGQGTQVTVSS,high polyreactivity
17,QVQLVESGGGLVQAGGSLRLSCAASGFTFALNAMGWYRQAPGKERELVAAISFSGTRTYYADSVKGRFTISRDNAKNTVYLQMNSLKPEDTAVYYCAARVWVSDSYYPYYYWGQGTQVTVSS,high polyreactivity
18,QVQLVESGGGLVQAGGSLRLSCAASGIIFTVYTMGWYRQAPGKERELVAAITTNGGSTYYADSVKGRFTISRDNAKNTVYLQMNSLKPEDTAVYYCAADYPYKPITYDYWGQGTQVTVSS,low polyreactivity
19,QVQLVESGGGLVQAGGSLRLSCAASGRIFGKYPMGWYRQAPAKERELVAAIRITGGSTYYADSVKGRFTISRDNAKNTVYLQMNSLKPEDTAVYYCAAVYKYADVIYDYWGQGTQVTVSS,high polyreactivity
20,QVQLVETGGGLVQAGGSLRLSCAASGFIFGYNAMGWYRQAPGKERELVATISWSGGSTYYADSVKGRFTISRDNAKNTVYLQMNSLKPEDSAVYYCAAEGWERLGWVSWVTVDYWGQGTQVTVSS,low polyreactivity
21,QVQLVESGGGLVQAGGSLRISCAASGRTFGIYAMGWYIKGPGKERELVADITIGGSTFYADSVKGRFTISRDNAKNTVYLPMNSLKPEDTAVYYCYDDVVVQYYFTYYRFFTYDYWGQGTQVTVSS,low polyreactivity
